From patent US20130055470

B1: AtTR1 protein (protein)
chain: MADHLSLCTDRLITSESLDSEKDSDSSGESSYRPQGTDLASSSVNETEVPREYYAVADEEEPLLQSVECRICQEEDSTKNLEAPCACNGSLKYAHRKCVQRWCNEKGDITCEICHQPYQHGYTAPPPPPPDETIIHIGDDWENGVPLDLTDPRILAMAAAERHFLEADYDEYSENNSSGAAFCRSAALILMALLLLRDALNLTTNPDDEDDPTAFFSLFLLRAAGFLLPCYIMAWAIGILQRRRQRQEAAALAAAEVTFMIHGGGPQRRGLHFAVAPQPPISNVPTPV
B2: OsTR1-1 protein (protein)
chain: MGDHVAVDVGGLMASRGAGEEETGALIGMVECRICQEEDLAKNLESPCACSGSLKYAHRECVQRWCNEKGDIICEICHVSYKPGYTAPPQVHHDETTIEISSGDWSISGNRLDLHDPRILAMAAAQHRLLEDEYDEYTATNNNAAAFCRSIFLILMALLLLRHTLTITSSDDEDDASAIFSLFLLRAAGFLLPCYIMAWAISIMQRQRQRQEEAMLLPTEVAIILHRNGRTMQFAVAPESPTTPHPEQGQ
B3: ZmTR1 protein (protein)
chain: MAGDDHVVVDVNGLAKSKDDGGSKKLSEDANGSAPAAASLSAAVDLVQEEEEEEGDGEEQPLIQAAECRICQEEDSVKNLEKPCACSGSLKYAHRACVQRWCNEKGDTTCEICHEEYKPGYTAPPRVQPDETTIDIDGDLVMDLRDPRILAVAAAQHRLLEAEYDGYASTDASGAAFCRSAALILMALLLLRHALSMSDNEGNDDDASTIFSLFLLRAAGFLLPCYIMAWIFSILHRRRQRQEEAALAAAEVAFILQSARGRALQFAIAPDSPATPQHEPVSQQQQ

Molecular target: ubiquitin

Protein | E3 ubiquitin ligase activity (in vitro ubiquitination reaction, anti-Ub Western blot)
B1 | multiple bands occurred in the lane with the addition of E1, E2, ATP and Ub, while no band occurred in the control
B2 | multiple bands occurred in the lane with the addition of E1, E2, ATP and Ub, while no band occurred in the control
B3 | multiple bands occurred in the lane with the addition of E1, E2, ATP and Ub, while no band occurred in the control
